# Reference: patent publication US20120164129
# B1: Echis carinatus snake venom prothrombin activator (ecarin) (protein)
# chain: VPPHERKFEKKFIELVVVVDHSMVTKYNNDSTAIRTWIYEMLNTVNEIYLPFNIRVALVGLEFWCNGDLINVTSTADDTLHSFGEWRASDLLNRKRHDHAQLLTNVTLDHSTLGITFVYGMCKSDRSVELILDYSNITFNMAYIIAHEMGHSLGMLHDTKFCTCGAKPCIMFGKESIPPPKEFSSCSYDQYNKYLLKYNPKCILDPPLRKDIASPAVCGNEIWEEGEECDCGSPADCRNPCCDAATCKLKPGAECGNGECCDKCKIRKAGTECRPARDDCDVAEHCTGQSAECPRNEFQRNGQPCLNNSGYCYNGDCPIMLNQCIALFSPSATVAQDSCFQRNLQGSYYGYCTKEIGYYGKRFPCAPQDVKCGRLYCLDNSFKKNMRCKNDYSYADENKGIVEPGTKCEDGKVCINRKCVDVNTAY
# Key:
# Fibrinogen = Fibrinogen (UniProt P02671)
# Chain of UniProt P02671 (P02671 20-629, chain 1 of 3): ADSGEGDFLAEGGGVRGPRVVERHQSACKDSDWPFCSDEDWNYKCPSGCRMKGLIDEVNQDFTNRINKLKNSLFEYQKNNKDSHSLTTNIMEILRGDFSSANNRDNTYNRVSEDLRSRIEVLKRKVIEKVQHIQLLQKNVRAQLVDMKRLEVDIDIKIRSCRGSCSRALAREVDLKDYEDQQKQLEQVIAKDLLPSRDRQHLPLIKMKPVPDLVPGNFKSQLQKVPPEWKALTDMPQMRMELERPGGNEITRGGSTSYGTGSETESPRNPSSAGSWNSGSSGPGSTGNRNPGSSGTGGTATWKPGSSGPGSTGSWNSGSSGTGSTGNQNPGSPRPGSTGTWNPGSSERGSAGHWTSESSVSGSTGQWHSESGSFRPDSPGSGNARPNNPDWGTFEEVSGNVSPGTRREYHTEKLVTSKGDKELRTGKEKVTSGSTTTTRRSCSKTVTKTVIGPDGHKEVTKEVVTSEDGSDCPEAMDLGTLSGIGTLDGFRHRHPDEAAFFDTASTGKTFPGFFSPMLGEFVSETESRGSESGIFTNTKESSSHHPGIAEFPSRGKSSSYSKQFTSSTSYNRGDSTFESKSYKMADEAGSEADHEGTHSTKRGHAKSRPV
# Chain of UniProt P02671 (chain, as listed by the source, chain 2 of 3): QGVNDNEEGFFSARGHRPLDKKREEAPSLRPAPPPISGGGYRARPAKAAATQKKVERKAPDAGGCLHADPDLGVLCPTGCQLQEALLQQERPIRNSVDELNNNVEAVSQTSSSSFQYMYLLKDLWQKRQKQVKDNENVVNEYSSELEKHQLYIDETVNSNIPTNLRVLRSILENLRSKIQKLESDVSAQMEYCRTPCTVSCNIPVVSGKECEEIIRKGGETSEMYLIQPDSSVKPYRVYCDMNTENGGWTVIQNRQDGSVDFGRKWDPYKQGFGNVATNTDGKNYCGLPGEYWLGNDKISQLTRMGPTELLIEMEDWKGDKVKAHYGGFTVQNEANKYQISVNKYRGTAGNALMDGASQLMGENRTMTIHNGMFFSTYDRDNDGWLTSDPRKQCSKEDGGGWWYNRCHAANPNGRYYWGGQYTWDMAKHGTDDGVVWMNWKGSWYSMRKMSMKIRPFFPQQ
# Chain of UniProt P02671 (chain, as listed by the source, chain 3 of 3): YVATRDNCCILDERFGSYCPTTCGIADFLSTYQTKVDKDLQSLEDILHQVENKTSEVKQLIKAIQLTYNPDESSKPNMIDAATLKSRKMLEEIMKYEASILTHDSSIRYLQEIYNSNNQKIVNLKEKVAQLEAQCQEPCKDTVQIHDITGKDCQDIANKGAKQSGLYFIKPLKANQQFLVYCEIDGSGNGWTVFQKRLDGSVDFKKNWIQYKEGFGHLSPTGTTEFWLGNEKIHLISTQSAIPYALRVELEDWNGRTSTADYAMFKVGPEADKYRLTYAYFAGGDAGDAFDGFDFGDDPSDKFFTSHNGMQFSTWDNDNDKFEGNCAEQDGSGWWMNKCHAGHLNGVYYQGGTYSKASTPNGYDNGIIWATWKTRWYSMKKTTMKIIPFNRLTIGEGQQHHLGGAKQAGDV
# [1] = molecular target: Ecarin-activatable E-WE Prethrombin-2 (W215A/E217A/N282D/P283G)
molecule,measurement,setting,value
"E. coli-derived recombinant E-WE thrombin (W215A/E217A), prepared from E-WE prethrombin-2 expressed in E. coli",specificity toward fibrinogen,Fibrinogen,consistently shows lower specificity toward fibrinogen compared to the BHK-expressed construct
WE thrombin (W215A/E217A) prepared from WE prethrombin-1 expressed in BHK cells,activity toward fibrinogen,Fibrinogen,BHK produces a construct with significantly higher activity toward FPR and fibrinogen
B1,proteolytic cleavage at the engineered ecarin site,[1],Cleavage also occurred at the engineered ecarin site that had been introduced preceding the A chain
same,proteolytic cleavage between the A and B chains,[1],The expected cleavage took place between the A and B chains to form an A chain-extended E-WE thrombin
